The values below are quoted from earlier work in article PMC5680199.

The target in the data set is human thrombin (human) (UniProt P00734+P00734). The data set can be described thus: not stated (cited). Conditions: phi29 DNA polymerase buffer adjusted to 10 mM K+ (optimum), ThT-HE 5 uM, 37 C, 2 h; pH not given in material.

What is called Kd is the free concentration of one partner at which half of the binding sites on the other are occupied at equilibrium, for simple one-to-one binding. With 29-mer thrombin-binding aptamer (TBA), the Kd is 0.5 nM.
